Measurements reported in patent US20250388678A1, “Methods, Combinations, and Uses for the Treatment of Muscle Invasive Bladder Cancer” (AstraZeneca AB, priority 2024, published 2025).

Key:
[1] = biological target: PD-L1 (Homo sapiens, UniProt Q9NZQ7); conditions: in vitro; cited from earlier work
[2] = tested on: xenograft model; conditions: via a T-cell dependent mechanism; cited from earlier work
[3] = tested on: muscle-invasive bladder cancer; assay: NIAGARA phase III study: survival efficacy endpoints (EFS, OS, MFS, DSS, DFS); type: in vivo, human
Source text: The NIAGARA (NCT03732677) study described herein is a phase III, randomized, open-label, multi-center global study of durvalumab in combination with neoadjuvant gemcitabine+cisplatin before cystectomy (surgery to remove the bladder) followed by durvalumab as adjuvant monotherapy in patients with histologically or cytologically documented, resectable muscle-invasive bladder cancer and transitional cell carcinoma of the urothelium.
The study enrolled 1530 patients and randomized 1063 of those the patients in a 1:1 ratio to receive durvalumab+Gemcitabine+Cisplatin (D+G+C) combination therapy every three weeks (q3w) (Arm 1) or G+C combination therapy q3w (Arm 2) for 4 cycles of neoadjuvant chemotherapy prior to radical cystectomy. Patients started adjuvant durvalumab or placebo administration following surgery as soon as clinically feasible and within 42-120 days following surgery from surgery. Following radical cystectomy and during adjuvant therapy, patients in Arm 1 received durvalumab monotherapy every 4 weeks (q4w) for 8 additional cycles, and patients in Arm 2 received no adjuvant treatment.
Patients received a combination therapy comprising 1500 mg durvalumab or placebo via intravenous (IV) infusion q3w for up to a maximum of 4 cycles prior to surgery and a platinum therapy consisting of cisplatin and gemcitabine, the dose dependent on renal function. Patients having a creatinine clearance rate of about ≥60 mL/min, were administered cisplatin at a dose of about 70 mg/m^2 on day 1 of each cycle; and (b) gemcitabine at a dose of about 1000 mg/m^2 on days 1 and 8 of each cycle every 3 weeks (q3w) for a total of four cycles. Patients having a creatinine clearance rate of about ≥40 mL/min to <60 mL/min, were administered cisplatin at a dose of about 70 mg/m^2 on day 1 of each cycle; and (b) gemcitabine at a dose of about 1000 mg/m^2 on days 1 and 8 of each cycle every 3 weeks (q3w) for a total of four cycles.
A radical cystectomy was performed as soon as possible after completion of fourth administration of the combination therapy. The radical cystectomy was performed between […] following the last administration of the combination therapy. Male patients underwent radial cytoprostatectomy and urinary diversion along with bilateral pelvic lymph node dissection. Female patients underwent radical cystectomy. Elective hysterectomy and bilateral salpingectomy was optionally performed if no gross evidence of oncologic involvement was noted by the surgeon. Oophorectomy was omitted if clinically indicated. A urinary diversion creation was established via an ileal conduit, ileal neobladder, Indiana Pouch, or as per local practice. Bilateral pelvic lymph node dissection included following template to include the 1) external iliac, 2) obturator, and 3) internal iliac nodes, and 4) common iliac nodes to the level of the ureteric crossing and included a lymph node classified as cN1 at baseline if one was present. Removal of other nodes is per the surgeon's discretion. The boundaries of the template were the circumflex iliac vein and Cloquet's node, laterally by the genitofemoral nerve, medially by the bladder, posteriorly by the obturator fossa, and proximally to the ureter. Radical cystectomy was mandatory study procedure for all patients unless a patient is only able to undergo a partial cystectomy.
(§1) Dual primary efficacy endpoints evaluated in this study were event-free survival (EFS; per blinded independent central review [BICR]) and pathological complete response (pCR; evaluated centrally). Therefore, if either the EFS endpoint or pCR endpoint was achieved, the study was considered a success.
Secondary endpoints included overall survival (OS), and evaluation of the primary outcome in the PD-L1 high subgroup; pharmacokinetics and immunogenicity; patient-reported outcomes; and safety. […]

[4] = NIAGARA phase III study: adverse events and immune-mediated adverse events; type: in vivo
Source text: Adverse Events (AEs), Serious Adverse Events (SAE), and immune-mediated adverse events (imAE) were collected from the time of the patient signing the informed consent form until follow-up period as completed (90 days after last dose of treatment (Arm 1) or adjuvant phase study visits (Arm 2). Tables 3 and 4 outline the variables collected for adverse events and severe adverse events.
AESIs for durvalumab include but are not limited to events with a potential inflammatory or immune-mediated mechanism and which may require more frequent monitoring and/or interventions such as steroids, immunosuppressants, and/or hormone replacement therapy. These AESIs are closely monitored in clinical studies with durvalumab monotherapy and combination therapy. An imAE is defined as an AESI that is associated with drug exposure, required the use of systemic steroids or other immunosuppressants and/or endocrine therapy for specific endocrine events, is consistent with an immune-mediated MOA, and where there is no clear alternate etiology.
Serologic, immunologic, and histologic (biopsy) data, as appropriate, were used to support an imAE diagnosis. Appropriate efforts were made to rule out neoplastic, infectious, metabolic, toxin, or other etiologic causes of the imAE.
The overall safety profile is consistent with the known safety profile of durvalumab and chemotherapy. The addition of durvalumab to chemotherapy had no detrimental impact on backbone chemotherapy administration. AEs leading to treatment discontinuation in neoadjuvant phase were balanced between the two arms. The number of patients not undergoing radical surgery because of AEs due to neoadjuvant treatment was balanced in both arms. Rates of grade 3 or 4 AEs and AEs with outcome of death were similar between the two arms (See Table 6). The overall study period included AEs that occurred between the first dose of study treatment, and whichever occurred first: 1) 90 days after the last dose of treatment, surgery, or last adjuvant visit; 2) date of first dose of subsequent anti-cancer therapy; or 3) data cut-off date.

[5] = tested on: muscle-invasive bladder cancer; assay: NIAGARA phase III study: pathological complete response (pCR) at radical cystectomy; type: in vivo, human
Method: as §1
Primary tumors and sampled lymph nodes were assessed for pathological response to neoadjuvant treatment by central pathology review using recommendations from the IASLC.
pCR efficacy assessment was accomplished by pathological review of radical cystectomy samples. EFS efficacy assessment were assessed by either RECIST 1.1 on imaging scans by pathology on biopsy samples if required.

[6] = ITT, durvalumab arm vs comparator arm
[7] = ITT, of 533 (durvalumab arm) / 530 (comparator arm)
[8] = non-pCR subgroup, durvalumab vs comparator, exploratory post hoc
[9] = pCR subgroup, durvalumab vs comparator, exploratory post hoc
[10] = patients with radical cystectomy and post-RC baseline scan, vs comparator arm
[11] = Safety Analysis Set, number of patients
[12] = durvalumab arm vs comparator arm

PD-L1, sequence (Q9NZQ7 19-290): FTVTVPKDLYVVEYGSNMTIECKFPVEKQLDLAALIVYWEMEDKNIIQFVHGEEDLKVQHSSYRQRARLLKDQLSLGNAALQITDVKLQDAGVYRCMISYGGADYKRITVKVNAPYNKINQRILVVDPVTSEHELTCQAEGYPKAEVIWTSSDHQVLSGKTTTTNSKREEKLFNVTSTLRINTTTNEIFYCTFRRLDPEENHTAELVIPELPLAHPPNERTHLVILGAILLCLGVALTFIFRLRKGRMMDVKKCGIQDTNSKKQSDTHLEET

Durvalumab: antibody that selectively binds PD-L1; trial arm: durvalumab+gemcitabine+cisplatin before radical cystectomy, then adjuvant durvalumab monotherapy
effect on PD-L1-mediated suppression of human T-cell activation [1]: relieve PD-L1-mediated suppression of human T-cell activation | effect on tumor growth in a xenograft model [2]: inhibits tumor growth | death from bladder cancer, percent of patients ([3]; ITT): 15.9% | patients with distant metastases or death (MFS events), percent ([3]; ITT): 28.5% | EFS Hazard Ratio (HR) ([3]; ITT population, durvalumab+cisplatin+gemcitabine vs cisplatin+gemcitabine, BICR, DCO April 2024): 0.68 | probability of 24-month metastasis-free survival ([3]; ITT, 24 months): 75.1% | disease-specific survival hazard ratio (HR) [3, 6]: 0.69 | metastasis-free survival hazard ratio (HR) [3, 6]: 0.67 | reduction in risk of death from bladder cancer (disease-specific survival) [3, 6]: 31% | reduction in the relative risk of death from any cause (OS) [3, 6]: 25% | reduction in risk of developing a distant metastasis or dying (metastasis-free survival) ([3]; ITT, durvalumab arm vs comparator arm, greater than 40 month follow-up): 33% | OS hazard ratio (HR) ([3]; ITT, durvalumab arm vs comparator arm, interim analysis): 0.75 | death from bladder cancer, number of patients [3, 7]: 85 patients | patients with distant metastases or death (MFS events), number [3, 7]: 152 patients | 24-month probability of disease-free survival ([3]; ITT, under heading Disease Specific Survival, 24 months): 89.2% | 24-month EFS rate ([3]; Non-pCR subgroup): 53% | 24-month OS rate ([3]; Non-pCR subgroup): 74% | DFS HR, non-pCR group ([3]; non-pCR group, vs comparator arm, exploratory post hoc): 0.82 | reduction in relative risk tumor growth, tumor spreading, not undergoing surgery or dying ([3]; non-pCR patients): 23% | reduction in the relative risk of dying from any cause ([3]; non-pCR patients): 16% | EFS HR, non-pCR patients [3, 8]: 0.77 | OS HR, non-pCR patients [3, 8]: 0.84 | DFS HR, pCR group ([3]; pCR group, vs comparator arm, exploratory post hoc): 0.58 | 24-month EFS rate ([3]; pCR subgroup): 92% | 24-month OS rate ([3]; pCR subgroup): 96% | EFS HR, patients with pCR [3, 9]: 0.58 | OS HR, patients with pCR [3, 9]: 0.72 | reduction in the relative risk of dying from any cause ([3]; patients achieving pCR): 28% | reduction in relative risk of tumor growth, tumor spreading, not undergoing surgery or dying ([3]; patients that achieved pCR): 42% | DFS hazard ratio (HR) [3, 10]: 0.69 | reduced risk of disease recurrence or death (DFS) [3, 10]: 31% | DFS HR, divergent or other histologic subtypes ([3]; total n=103, vs comparator arm): 0.45 | Anemia (%) ([4]; Safety Analysis Set): (38.7) % | Asthenia (%) ([4]; Safety Analysis Set): (17.5) % | Blood creatinine increased (%) ([4]; Safety Analysis Set): (18.5) % | Constipation (%) ([4]; Safety Analysis Set): (38.7) % | Decreased appetite (%) ([4]; Safety Analysis Set): (26.6) % | Diarrhea (%) ([4]; Safety Analysis Set): (20.6) % | Fatigue (%) ([4]; Safety Analysis Set): (36.0) % | Nausea (%) ([4]; Safety Analysis Set): (53.6) % | Neutropenia (%) ([4]; Safety Analysis Set): (25.8) % | Neutrophil count decreased (%) ([4]; Safety Analysis Set): (15.3) % | Patients with any AE (%) ([4]; Safety Analysis Set): (99.4) % | Pruritis (%) ([4]; Safety Analysis Set): (15.1) % | Pyrexia (%) ([4]; Safety Analysis Set): (20.8) % | Urinary tract infection (%) ([4]; Safety Analysis Set): (30.0) % | Vomiting (%) ([4]; Safety Analysis Set): (19.2) % | Anemia, number [4, 11]: 205 | Asthenia, number [4, 11]: 93 | Blood creatinine increased, number [4, 11]: 98 | Constipation, number [4, 11]: 205 | Decreased appetite, number [4, 11]: 141 | Diarrhea, number [4, 11]: 109 | Fatigue, number [4, 11]: 191 | Nausea, number [4, 11]: 284 | Neutropenia, number [4, 11]: 137 | Neutrophil count decreased, number [4, 11]: 81 | Patients with any AE, number [4, 11]: 527 | Pruritis, number [4, 11]: 80 | Pyrexia, number [4, 11]: 110 | Urinary tract infection, number [4, 11]: 159 | Vomiting, number [4, 11]: 102 | AEs leading to discontinuation of NAC, % ([4]; in vivo): (13.6) % | AEs leading to discontinuation of adjuvant durvalumab, % ([4]; in vivo): (7.8) % | AEs leading to discontinuation of neoadjuvant durvalumab, % ([4]; in vivo): (9.4) % | AEs leading to patient not undergoing RC, % ([4]; in vivo): (1.1) % | additional imAEs: dermatitis/rash, renal events, diarrhea/colitis, pneumonitis (each) ([4]; in vivo): ≤ 2% | imAE hyperthyroid events ([4]; in vivo): 3% | imAE hypothyroid events ([4]; in vivo): 10% | imAEs resolved at data cutoff, number of patients ([4]; of 111 (durvalumab arm) / 16 (comparator arm)): 45 patients | imAEs reported, number of patients ([4]; of 530 (durvalumab arm) / 526 (comparator arm)): 111 patients | imAEs resolved at data cutoff, percent of patients ([4]; of patients with imAEs): 41% | AEs leading to delay in surgery, % ([4]; outside recommended timeframe for RC of 56 days after last dose of NAC): (2.0) % | AEs leading to discontinuation of study treatment, % ([4]; overall study period): (21) % | AEs possibly related to any treatment: Max grade 3 or 4, % ([4]; overall study period): (40.6) % | AEs possibly related to any treatment: Outcome of death, % ([4]; overall study period): (0.6) % | AEs with outcome of death, % ([4]; overall study period): (5.1) % | Any-grade AEs possibly related to any treatment, % ([4]; overall study period): (94.7) % | Any-grade AEs, % ([4]; overall study period): (99.4) % | Any-grade AEs: Max grade 3 or 4, % ([4]; overall study period): (69.4) % | SAEs, % ([4]; overall study period): (61.5) % | imAEs grade 3/4 ([4]; overall study period): 3% | imAEs reported, percent of patients ([4]; overall study period, any grade): 21% | patients with pCR at the time of the radical cystectomy ([5]; ITT): 37.3% | difference in pCR with durvalumab in addition to chemotherapy [5, 12]: ~10% | pCR odds ratio [5, 12]: 1.60 | pCR rates among patients that underwent RC ([5]; durvalumab arm=469 patients, comparator arm=441 patients): increased
